B1: GTGCAC_site9771 (dsDNA)
DNA 1: GTACGTTTCTCCAGACTGCACTATACGACTCGTACA
DNA 2: TGTACGAGTCGTATAGTGCAGTCTGGAGAAACGTAC
B2: GTGCAC_site10046 (dsDNA)
DNA 1: TTTTTGTTATATAAAGTGCAGTGACAAGCAGTTTAA
DNA 2: TTAAACTGCTTGTCACTGCACTTTATATAACAAAAA
B3: GTGCAC_site9816 (dsDNA)
DNA 1: AAGACATTTTTTAAGGTGCTTTGGAAAAAGGAGTAT
DNA 2: ATACTCCTTTTTCCAAAGCACCTTAAAAAATGTCTT
B4: GTGCAC_negctrl_site256 (dsDNA)
DNA 1: AATGATTTTAAATGAACATAATTTATATTCATAACA
DNA 2: TGTTATGAATATAAATTATGTTCATTTAAAATCATT
B5: GTGCAC_negctrl_site161 (dsDNA)
DNA 1: AGAAAAAAAAAAAAAAATAAAAAAATAAATAAATAA
DNA 2: TTATTTATTTATTTTTTTATTTTTTTTTTTTTTTCT
B6: GTGCAC_negctrl_site643 (dsDNA)
DNA 1: TGTAGTCATTAGTCAAATTAGAATTAAATATATATT
DNA 2: AATATATATTTAATTCTAATTTGACTAATGACTACA
B7: GTGCAC_negctrl_site370 (dsDNA)
DNA 1: AATATATGGTTTCATGATATTAAATTCAATTTAATG
DNA 2: CATTAAATTGAATTTAATATCATGAAACCATATATT
B8: GTGCAC_site10541 (dsDNA)
DNA 1: TTCAAATAAATAGTAGTGCATATTTATTAATGTAAA
DNA 2: TTTACATTAATAAATATGCACTACTATTTATTTGAA
B9: GTGCAC_negctrl_site307 (dsDNA)
DNA 1: AATAATAAACACAATCAAATAAAATATGAAATATAA
DNA 2: TTATATTTCATATTTTATTTGATTGTGTTTATTATT
B10: GTGCAC_negctrl_site664 (dsDNA)
DNA 1: AAAAAAAAAAAGATAAATACAAGTTACACAAAAAAA
DNA 2: TTTTTTTGTGTAACTTGTATTTATCTTTTTTTTTTT
B11: GTGCAC_site10325 (dsDNA)
DNA 1: TATATACATGTGAGAGTGCATATAGACATAAAAAAT
DNA 2: ATTTTTTATGTCTATATGCACTCTCACATGTATATA
B12: GTGCAC_site10208 (dsDNA)
DNA 1: TTTTGTTATTAGAGGGTGCTTATAATGAACTCCTAC
DNA 2: GTAGGAGTTCATTATAAGCACCCTCTAATAACAAAA
B13: GTGCAC_site9599 (dsDNA)
DNA 1: TTATATGTATATATAGTGCAGAACAAAAGATTATAT
DNA 2: ATATAATCTTTTGTTCTGCACTATATATACATATAA
B14: GTGCAC_site9973 (dsDNA)
DNA 1: AATTAAAAGTGAAGAGTGCATAGAATTTTTTACTTT
DNA 2: AAAGTAAAAAATTCTATGCACTCTTCACTTTTAATT
B15: GTGCAC_negctrl_site311 (dsDNA)
DNA 1: ATAAAATACCCTGATCTATTACATATTATATTCTGC
DNA 2: GCAGAATATAATATGTAATAGATCAGGGTATTTTAT
B16: GTGCAC_negctrl_site589 (dsDNA)
DNA 1: TTCTTTAATAAAATAATCTCAAAGAAAATTTTTTCT
DNA 2: AGAAAAAATTTTCTTTGAGATTATTTTATTAAAGAA
B17: GTGCAC_site10283 (dsDNA)
DNA 1: AAAATAATTTTATAAGTGCAAAATAGCTTATTTATA
DNA 2: TATAAATAAGCTATTTTGCACTTATAAAATTATTTT
B18: GTGCAC_negctrl_site616 (dsDNA)
DNA 1: TTATTTTTATTATAAATTATAAAATATAAATAAATA
DNA 2: TATTTATTTATATTTTATAATTTATAATAAAAATAA
B19: GTGCAC_site9560 (dsDNA)
DNA 1: ATACATCGTATATAAGTGCATATTAAGGTCTTAAGA
DNA 2: TCTTAAGACCTTAATATGCACTTATATACGATGTAT
B20: GTGCAC_negctrl_site473 (dsDNA)
DNA 1: GGGTCAAGTAAGCTGTTCCTCTTTTTCTTTCTCACT
DNA 2: AGTGAGAAAGAAAAAGAGGAACAGCTTACTTGACCC
B21: GTGCAC_negctrl_site203 (dsDNA)
DNA 1: TTGATGTATACAATGTAGATTATTTAATATTTCAAT
DNA 2: ATTGAAATATTAAATAATCTACATTGTATACATCAA
B22: GTGCAC_negctrl_site37 (dsDNA)
DNA 1: AATAAATAAATAAATTAATAAATTAATAAATTAATA
DNA 2: TATTAATTTATTAATTTATTAATTTATTTATTTATT
B23: GTGCAC_negctrl_site286 (dsDNA)
DNA 1: TCCTATCATTTATATTTTACTACATAATATTGATAA
DNA 2: TTATCAATATTATGTAGTAAAATATAAATGATAGGA
B24: GTGCAC_negctrl_site123 (dsDNA)
DNA 1: TCCTTAAAAATCTAAAAAGAAAAAAACATATATTTT
DNA 2: AAAATATATGTTTTTTTCTTTTTAGATTTTTAAGGA
B25: GTGCAC_negctrl_site309 (dsDNA)
DNA 1: AATGATGTTGTATTGTTTCGATATAACATCTAATTT
DNA 2: AAATTAGATGTTATATCGAAACAATACAACATCATT
B26: GTGCAC_negctrl_site234 (dsDNA)
DNA 1: GACAAAAAATTAAAATAAAATAATAATATAATAAAA
DNA 2: TTTTATTATATTATTATTTTATTTTAATTTTTTGTC
B27: GTGCAC_negctrl_site156 (dsDNA)
DNA 1: TAACTTTTTTTTTTTTTTTTTTAACTTTTATGTAAT
DNA 2: ATTACATAAAAGTTAAAAAAAAAAAAAAAAAAGTTA
B28: GTGCAC_site10457 (dsDNA)
DNA 1: TACAATATATTTATAGTGCATATTACTTTTAACTTT
DNA 2: AAAGTTAAAAGTAATATGCACTATAAATATATTGTA
B29: GTGCAC_negctrl_site662 (dsDNA)
DNA 1: TTTTAATGAAATATCAAAAAAATTTATGATTTCAAA
DNA 2: TTTGAAATCATAAATTTTTTTGATATTTCATTAAAA
B30: GTGCAC_site10708 (dsDNA)
DNA 1: TTCTAAAATTATATAGTGCAATTATATTAATTTTTC
DNA 2: GAAAAATTAATATAATTGCACTATATAATTTTAGAA
B31: GTGCAC_site10715 (dsDNA)
DNA 1: TTTTTGTAACCGATTCTGCACTGAGAAGCACATATA
DNA 2: TATATGTGCTTCTCAGTGCAGAATCGGTTACAAAAA
B32: GTGCAC_negctrl_site193 (dsDNA)
DNA 1: GCATATATTATATATTTATTTATTTTTTTTTTTTAA
DNA 2: TTAAAAAAAAAAAATAAATAAATATATAATATATGC
B33: GTGCAC_negctrl_site558 (dsDNA)
DNA 1: AAATAATATATTCTATATAATAAATTATAAATATAA
DNA 2: TTATATTTATAATTTATTATATAGAATATATTATTT
B34: GTGCAC_site10627 (dsDNA)
DNA 1: TTAAGATACAAAAAAGTGCATATTTTTTAACAAAAA
DNA 2: TTTTTGTTAAAAAATATGCACTTTTTTGTATCTTAA
B35: GTGCAC_negctrl_site587 (dsDNA)
DNA 1: AAAAAAATAAAATTATATAAAATAAATTTTTATAAT
DNA 2: ATTATAAAAATTTATTTTATATAATTTTATTTTTTT
B36: GTGCAC_negctrl_site185 (dsDNA)
DNA 1: AAAAGAAAAATGTCATATGATATCATATATTTTATA
DNA 2: TATAAAATATATGATATCATATGACATTTTTCTTTT
B37: GTGCAC_site10554 (dsDNA)
DNA 1: TATATATATATATGAGTGCATATGTGTAATATAAAA
DNA 2: TTTTATATTACACATATGCACTCATATATATATATA
B38: GTGCAC_site10475 (dsDNA)
DNA 1: TAATGTTCCTATATAGTGCAATTATGTTTTATTTCT
DNA 2: AGAAATAAAACATAATTGCACTATATAGGAACATTA
B39: GTGCAC_negctrl_site80 (dsDNA)
DNA 1: TATTTTTTTTTCTTTTTATATATAATAATCTTCATT
DNA 2: AATGAAGATTATTATATATAAAAAGAAAAAAAAATA
B40: GTGCAC_negctrl_site543 (dsDNA)
DNA 1: AAATGTGTAAATATAATTAGTTTCACAAAACAAATA
DNA 2: TATTTGTTTTGTGAAACTAATTATATTTACACATTT
B41: GTGCAC_site10493 (dsDNA)
DNA 1: AAAGGATTTATACTAGTGCAAAAATATAAAAATATA
DNA 2: TATATTTTTATATTTTTGCACTAGTATAAATCCTTT
B42: GTGCAC_negctrl_site345 (dsDNA)
DNA 1: TTTTTCTATATTTTCTTTTATAAAATATATAATTTT
DNA 2: AAAATTATATATTTTATAAAAGAAAATATAGAAAAA
B43: GTGCAC_negctrl_site531 (dsDNA)
DNA 1: AAATAAATTAAAATAAATTAAATTAAATTAGCATTA
DNA 2: TAATGCTAATTTAATTTAATTTATTTTAATTTATTT
B44: GTGCAC_negctrl_site139 (dsDNA)
DNA 1: TGATGAAAATCTACATGAATGTTTTTATATCTATAT
DNA 2: ATATAGATATAAAAACATTCATGTAGATTTTCATCA

These binders were tested against AP2-I D3 (Plasmodium falciparum, UniProt Q8IJW6 910-1027) (assay: gcPBM; about 25 ug protein; PBS, 1% milk, 0.2 mg/ml BSA, salmon testes DNA, 0.03% Triton X-100). Settings: tags: N-terminal GST (pGEX-4T-1), kept; label: surface-attached array probe.
With B1 the binding signal was 9.61 ln median PBM intensity, better of two orientations. With B2 the binding signal was 9.65 ln median PBM intensity, better of two orientations. For B3, the binding signal was 9.5 ln median PBM intensity, better of two orientations. B4 was tested, and the binding signal was 6.86 ln median PBM intensity, better of two orientations. For B5, the binding signal was 6.87 ln median PBM intensity, better of two orientations. B6 was tested, and the binding signal was 6.93 ln median PBM intensity, better of two orientations. With B7 the binding signal was 7.01 ln median PBM intensity, better of two orientations. With B8 the binding signal was 9.69 ln median PBM intensity, better of two orientations. With B9 the binding signal was 6.89 ln median PBM intensity, better of two orientations. B10 was tested, and the binding signal was 6.94 ln median PBM intensity, better of two orientations. For B11, the binding signal was 10 ln median PBM intensity, better of two orientations. In the case of B12, the binding signal is reported as 9.87 ln median PBM intensity, better of two orientations. With B13 the binding signal was 9.82 ln median PBM intensity, better of two orientations. With B14 the binding signal was 9.92 ln median PBM intensity, better of two orientations. B15 was tested, and the binding signal was 7.03 ln median PBM intensity, better of two orientations. With B16 the binding signal was 7.02 ln median PBM intensity, better of two orientations. In the case of B17, the binding signal is reported as 9.62 ln median PBM intensity, better of two orientations. B18 was tested, and the binding signal was 7 ln median PBM intensity, better of two orientations. For B19, the binding signal was 9.59 ln median PBM intensity, better of two orientations. With B20 the binding signal was 6.97 ln median PBM intensity, better of two orientations. For B21, the binding signal was 7.03 ln median PBM intensity, better of two orientations. In the case of B22, the binding signal is reported as 6.84 ln median PBM intensity, better of two orientations. For B23, the binding signal was 6.95 ln median PBM intensity, better of two orientations. With B24 the binding signal was 6.9 ln median PBM intensity, better of two orientations. With B25 the binding signal was 6.82 ln median PBM intensity, better of two orientations. B26 was tested, and the binding signal was 6.9 ln median PBM intensity, better of two orientations. With B27 the binding signal was 6.93 ln median PBM intensity, better of two orientations. B28 was tested, and the binding signal was 9.8 ln median PBM intensity, better of two orientations. For B29, the binding signal was 6.64 ln median PBM intensity, better of two orientations. With B30 the binding signal was 9.54 ln median PBM intensity, better of two orientations. In the case of B31, the binding signal is reported as 9.57 ln median PBM intensity, better of two orientations. With B32 the binding signal was 6.96 ln median PBM intensity, better of two orientations. For B33, the binding signal was 6.74 ln median PBM intensity, better of two orientations. For B34, the binding signal was 9.96 ln median PBM intensity, better of two orientations. For B35, the binding signal was 6.82 ln median PBM intensity, better of two orientations. B36 was tested, and the binding signal was 6.79 ln median PBM intensity, better of two orientations. B37 was tested, and the binding signal was 9.85 ln median PBM intensity, better of two orientations. For B38, the binding signal was 9.98 ln median PBM intensity, better of two orientations. B39 was tested, and the binding signal was 7 ln median PBM intensity, better of two orientations. B40 was tested, and the binding signal was 7.01 ln median PBM intensity, better of two orientations. With B41 the binding signal was 9.74 ln median PBM intensity, better of two orientations. With B42 the binding signal was 6.92 ln median PBM intensity, better of two orientations. B43 was tested, and the binding signal was 6.62 ln median PBM intensity, better of two orientations. With B44 the binding signal was 6.88 ln median PBM intensity, better of two orientations.

From PMC11417369, “DNA sequence and chromatin differentiate sequence-specific transcription factor binding in the human malaria parasite Plasmodium falciparum”
